# Measured values as given in FireProtDB (doi:10.1073/pnas.0804396105).
# Values joined by “and” are separate entries in the source; they are usually repeats but may differ in a detail not shown here. Equal values may be shown once.
# B1: Adenosine receptor A2a, P29274 (parent)
# chain: MPIMGSSVYITVELAIAVLAILGNVLVCWAVWLNSNLQNVTNYFVVSLAAADIAVGVLAIPFAITISTGFCAACHGCLFIACFVLVLTQSSIFSLLAIAIDRYIAIRIPLRYNGLVTGTRAKGIIAICWVLSFAIGLTPMLGWNNCGQPKEGKNHSQGCGEGQVACLFEDVVPMNYMVYFNFFACVLVPLLLMLGVYLRIFLAARRQLKQMESQPLPGERARSTLQKEVHAAKSLAIIVGLFALCWLPLHIINCFTFFCPDCSHAPLWLMYLAIVLSHTNSVVNPFIYAYRIREFRQTFRKIIRSHVLRQQEPFKAAGTSARVLAAHGSDGEQVSLRLNGHPPGVWANGSAPHPERRPNGYALGLVSGGSAQESQGNTGLPDVELLSHELKGVCPEPPGLDDPLAQDGAGVS
# Variants of: B1
# Details: Homo sapiens; pH 7.4; Thermal; Activity; Tris 50 mM; NaCl 0.4 M; structure 4UHR; whole UniProt chain shown
variant,measurement,value
L167A A184L L272A,Tm,27 °C
same,"change of melting temperature, mutant - wild type (higher = more stable)",7 °C
K122A L235A,Tm,37 °C
same,"change of melting temperature, mutant - wild type (higher = more stable)",6 °C
A54L V57A,Tm,31 °C
same,"change of melting temperature, mutant - wild type (higher = more stable)",0 °C
Q210A E219A,Tm,31 °C
same,"change of melting temperature, mutant - wild type (higher = more stable)",11 °C
A184L A203L,Tm,30 °C
same,"change of melting temperature, mutant - wild type (higher = more stable)",10 °C
G114A G118A,Tm,31 °C
same,"change of melting temperature, mutant - wild type (higher = more stable)",11 °C
P260A L267A,Tm,31 °C and 30 °C
L167A A184L R199A L241A L272A,Tm,29 °C
same,"change of melting temperature, mutant - wild type (higher = more stable)",9 °C
A54L V239A,Tm,40 °C and 42 °C
same,"change of melting temperature, mutant - wild type (higher = more stable)",9 °C and 10 °C
S223A T224A Q226A K227A,Tm,24 °C
same,"change of melting temperature, mutant - wild type (higher = more stable)",4 °C
A54L T88A A204L V239A,"change of melting temperature, mutant - wild type (higher = more stable)",10 °C and 15 °C
L167A A184L R199A H230A,Tm,31 °C
same,"change of melting temperature, mutant - wild type (higher = more stable)",11 °C
A231L L235A V239A,Tm,38 °C
same,"change of melting temperature, mutant - wild type (higher = more stable)",7 °C
T279A N284A,Tm,29 °C
same,"change of melting temperature, mutant - wild type (higher = more stable)",9 °C
A203L A204L,Tm,40 °C and 42 °C
same,"change of melting temperature, mutant - wild type (higher = more stable)",9 °C and 10 °C
